Data reported in the supplement of paper PMC10567573.

B1: DLC1 (parent)
chain: AEVVKIRDSFSNQNTETKDTKSR

Variants of: B1
Assay: protein stability index of a GFP-peptide fusion (GPS, HEK-293T) (PSI 1-6); higher = more stable
Settings: c terminus: native
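Also: lentivirally expressed fusions sorted by FACS into six bins by GFP to DsRed ratio, PSI derived from sequencing read proportions per bin multiplied by bin number.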

First: AEVVKIRDSFSNQNYETKDTKSR [T15Y]
Second: AEVVKIRDSFSNQNAETKDTKSR [T15A]
The protein stability index of the first is lower: 1.62 for the first, 2.14 for the second.

Going from AEVVKIRDSFSNQNNETKDTKSR [T15N] to AEVVKIRDSFSNQNKETKDTKSR [T15K], the protein stability index falls from 2.52 to 2.21.

Going from AEVVKIRDSFSNQNWETKDTKSR [T15W] to AEVVKIRDSFSNQNFETKDTKSR [T15F], the protein stability index rises from 2.05 to 2.36.

First: AEVVKIRDSFSNQNRETKDTKSR [T15R]
Second: AEVVKIRDSFSNQNMETKDTKSR [T15M]
The protein stability index of the first is lower: 1.67 for the first, 1.86 for the second.

Going from AEVVKIRDSFSNQNEETKDTKSR [T15E] to AEVVKIRDSFSNQNLETKDTKSR [T15L], the protein stability index falls from 3.38 to 2.17.

Compared with AEVVKIRDSFSNQNHETKDTKSR [T15H], AEVVKIRDSFSNQNSETKDTKSR [T15S] is higher in protein stability index: 1.77 for the first, 2.75 for the second.

Compared with AEVVKIRDSFSNQNPETKDTKSR [T15P], AEVVKIRDSFSNQNIETKDTKSR [T15I] is lower in protein stability index: 2.08 for the first, 1.62 for the second.

First: AEVVKIRDSFSNQNDETKDTKSR [T15D]
Second: AEVVKIRDSFSNQNCETKDTKSR [T15C]
The protein stability index of the first is higher: 3.36 for the first, 2.08 for the second.

First: AEVVKIRDSFSNQNVETKDTKSR [T15V]
Second: AEVVKIRDSFSNQNQETKDTKSR [T15Q]
The protein stability index of the first is lower: 2.38 for the first, 2.98 for the second.

Compared with AEVVKIRDSFSNQNGETKDTKSR [T15G], AEVVKIRDSFSNQNTGTKDTKSR [E16G] is lower in protein stability index: 4.39 for the first, 2.38 for the second.

Compared with AEVVKIRDSFSNQNTLTKDTKSR [E16L], AEVVKIRDSFSNQNTNTKDTKSR [E16N] is higher in protein stability index: 1.91 for the first, 2.27 for the second.

Compared with AEVVKIRDSFSNQNTITKDTKSR [E16I], AEVVKIRDSFSNQNTPTKDTKSR [E16P] is higher in protein stability index: 1.97 for the first, 2.41 for the second.

Going from AEVVKIRDSFSNQNTRTKDTKSR [E16R] to AEVVKIRDSFSNQNTSTKDTKSR [E16S], the protein stability index falls from 2.31 to 1.9.

First: AEVVKIRDSFSNQNTWTKDTKSR [E16W]
Second: AEVVKIRDSFSNQNTHTKDTKSR [E16H]
The protein stability index of the first is lower: 1.95 for the first, 3 for the second.

Going from AEVVKIRDSFSNQNTYTKDTKSR [E16Y] to AEVVKIRDSFSNQNTDTKDTKSR [E16D], the protein stability index rises from 1.31 to 3.35.

First: AEVVKIRDSFSNQNTATKDTKSR [E16A]
Second: AEVVKIRDSFSNQNTQTKDTKSR [E16Q]
The protein stability index of the first is lower: 2.43 for the first, 3.17 for the second.

Compared with AEVVKIRDSFSNQNTFTKDTKSR [E16F], AEVVKIRDSFSNQNTCTKDTKSR [E16C] is lower in protein stability index: 3.13 for the first, 1.84 for the second.

First: AEVVKIRDSFSNQNTMTKDTKSR [E16M]
Second: AEVVKIRDSFSNQNTKTKDTKSR [E16K]
The protein stability index of the first is lower: 1.51 for the first, 3.12 for the second.

Compared with AEVVKIRDSFSNQNTTTKDTKSR [E16T], AEVVKIRDSFSNQNTVTKDTKSR [E16V] is higher in protein stability index: 2.06 for the first, 3.04 for the second.

Going from AEVVKIRDSFSNRNTETKDTKSR [Q13R] to AEVVKIRDSFSNENTETKDTKSR [Q13E], the protein stability index falls from 3.77 to 2.9.

Compared with AEVVKIRDSFSNDNTETKDTKSR [Q13D], AEVVKIRDSFSNHNTETKDTKSR [Q13H] is lower in protein stability index: 2.37 for the first, 2.32 for the second.

First: AEVVKIRDSFSNYNTETKDTKSR [Q13Y]
Second: AEVVKIRDSFSNGNTETKDTKSR [Q13G]
The protein stability index of the first is higher: 2.92 for the first, 2.33 for the second.

Going from AEVVKIRDSFSNKNTETKDTKSR [Q13K] to AEVVKIRDSFSNVNTETKDTKSR [Q13V], the protein stability index rises from 1.77 to 3.62.

Compared with AEVVKIRDSFSNPNTETKDTKSR [Q13P], AEVVKIRDSFSNANTETKDTKSR [Q13A] is higher in protein stability index: 2.4 for the first, 2.41 for the second.

Compared with AEVVKIRDSFSNSNTETKDTKSR [Q13S], AEVVKIRDSFSNFNTETKDTKSR [Q13F] is higher in protein stability index: 1.87 for the first, 2.26 for the second.

First: AEVVKIRDSFSNWNTETKDTKSR [Q13W]
Second: AEVVKIRDSFSNMNTETKDTKSR [Q13M]
The protein stability index of the first is higher: 2.36 for the first, 1.94 for the second.

Compared with AEVVKIRDSFSNNNTETKDTKSR [Q13N], AEVVKIRDSFSNCNTETKDTKSR [Q13C] is lower in protein stability index: 2.56 for the first, 1.93 for the second.

Going from AEVVKIRDSFSNLNTETKDTKSR [Q13L] to AEVVKIRDSFSNTNTETKDTKSR [Q13T], the protein stability index rises from 2.31 to 2.45.

First: AEVVKIRDSFSNQNTELKDTKSR [T17L]
Second: AEVVKIRDSFSNQNTEIKDTKSR [T17I]
The protein stability index of the first is lower: 2.34 for the first, 2.41 for the second.

Compared with AEVVKIRDSFSNQNTEWKDTKSR [T17W], AEVVKIRDSFSNQNTEFKDTKSR [T17F] is lower in protein stability index: 3.5 for the first, 2.54 for the second.

First: AEVVKIRDSFSNQNTEKKDTKSR [T17K]
Second: AEVVKIRDSFSNQNTEAKDTKSR [T17A]
The protein stability index of the first is lower: 2.17 for the first, 2.22 for the second.

First: AEVVKIRDSFSNQNTEYKDTKSR [T17Y]
Second: AEVVKIRDSFSNQNTENKDTKSR [T17N]
The protein stability index of the first is higher: 2.31 for the first, 1.86 for the second.

Going from AEVVKIRDSFSNQNTEEKDTKSR [T17E] to AEVVKIRDSFSNQNTEMKDTKSR [T17M], the protein stability index rises from 2.43 to 2.68.

Compared with AEVVKIRDSFSNQNTEGKDTKSR [T17G], AEVVKIRDSFSNQNTEDKDTKSR [T17D] is lower in protein stability index: 4.08 for the first, 1.83 for the second.

First: AEVVKIRDSFSNQNTEVKDTKSR [T17V]
Second: AEVVKIRDSFSNQNTECKDTKSR [T17C]
The protein stability index of the first is lower: 1.26 for the first, 2.11 for the second.

Going from AEVVKIRDSFSNQNTEPKDTKSR [T17P] to AEVVKIRDSFSNQNTEQKDTKSR [T17Q], the protein stability index falls from 2.97 to 2.61.

Compared with AEVVKIRDSFSNQNTERKDTKSR [T17R], AEVVKIRDSFSNQNTEHKDTKSR [T17H] is lower in protein stability index: 1.84 for the first, 1.73 for the second.

First: AEVVKIRDSFSYQNTETKDTKSR [N12Y]
Second: AEVVKIRDSFSTQNTETKDTKSR [N12T]
The protein stability index of the first is lower: 1.78 for the first, 2.23 for the second.

First: AEVVKIRDSFSVQNTETKDTKSR [N12V]
Second: AEVVKIRDSFSSQNTETKDTKSR [N12S]
The protein stability index of the first is lower: 1.68 for the first, 1.86 for the second.

First: AEVVKIRDSFSNQNTETADTKSR [K18A]
Second: AEVVKIRDSFSNQNTETCDTKSR [K18C]
The protein stability index of the first is lower: 1.17 for the first, 2.84 for the second.

Going from AEVVKIRDSFSNQHTETKDTKSR [N14H] to AEVVKIRDSFSNQKTETKDTKSR [N14K], the protein stability index falls from 2.46 to 2.44.

Compared with AEVVKIRDSFSNQFTETKDTKSR [N14F], AEVVKIRDSFSNQGTETKDTKSR [N14G] is higher in protein stability index: 1.93 for the first, 2.08 for the second.

First: AEVVKIRDSFSNQITETKDTKSR [N14I]
Second: AEVVKIRDSFSNQCTETKDTKSR [N14C]
The protein stability index of the first is lower: 2.08 for the first, 2.16 for the second.

First: AEVVKIRDSFSNQLTETKDTKSR [N14L]
Second: AEVVKIRDSFSNQRTETKDTKSR [N14R]
The protein stability index of the first is lower: 2.09 for the first, 2.48 for the second.

Going from AEVVKIRDSFSNQSTETKDTKSR [N14S] to AEVVKIRDSFSNQWTETKDTKSR [N14W], the protein stability index rises from 1.96 to 2.37.

First: AEVVKIRDSFSNQATETKDTKSR [N14A]
Second: AEVVKIRDSFSNQETETKDTKSR [N14E]
The protein stability index of the first is lower: 1.86 for the first, 2.24 for the second.

Going from AEVVKIRDSFSNQVTETKDTKSR [N14V] to AEVVKIRDSFSNQPTETKDTKSR [N14P], the protein stability index rises from 1.66 to 3.12.

Compared with AEVVKIRDSFSNQTTETKDTKSR [N14T], AEVVKIRDSFSNQDTETKDTKSR [N14D] is lower in protein stability index: 2.55 for the first, 2.33 for the second.

Work on AEVVKIRDSFSNQQTETKDTKSR [N14Q] yielded a protein stability index of 2.37.
